Measurements taken from patent US20260167699A1 (Chugai, published 2026).

B1: GpH7-A5/GpH7-B3 variant A330_19Q/GpL16-k0 (antibody, human IgG1, kappa)
heavy 1: not shown
heavy 2: not shown
light: DIVMTQSPLSLPVTPGEPASISCQASESLVHSNRNTYLHWYLQKPGQSPQLLIYKVSNRFSGVPDRFSGSGSGTDFTLKISRVEAEDVGVYYCSQNTHVPPTFGQGTKVEIERTVAAPSVFIFPPSDEQLKSGTASVVCLLNNFYPREAKVQWKVDNALQSGNSQESVTEQDSKDSTYSLSSTLTLSKADYEKHKVYACEVTHQGLSSPVTKSFNRGEC
notes: copies: 1 + 1 + 2
B2: GpH7-A5/GpH7-B3 variant D270_19Q/GpL16-k0 (antibody, human IgG1, kappa)
heavy 1: not shown
heavy 2: not shown
light: B1 light
notes: copies: 1 + 1 + 2
B3: GpH7-A5/GpH7-B3 variant A327_18N/GpL16-k0 (antibody, human IgG1, kappa)
heavy 1: not shown
heavy 2: not shown
light: B1 light
notes: copies: 1 + 1 + 2
B4: GpH7-A5/GpH7-B3 variant A327_09D/GpL16-k0 (antibody, human IgG1, kappa)
heavy 1: not shown
heavy 2: not shown
light: B1 light
notes: copies: 1 + 1 + 2
B5: GpH7-A5/GpH7-B3 variant E269_03V/GpL16-k0 (antibody, human IgG1, kappa)
heavy 1: not shown
heavy 2: not shown
light: B1 light
notes: copies: 1 + 1 + 2
B6: GpH7-A5/GpH7-B3 variant E269_13S/GpL16-k0 (antibody, human IgG1, kappa)
heavy 1: not shown
heavy 2: not shown
light: B1 light
notes: copies: 1 + 1 + 2
B7: GpH7-A5/GpH7-B3 variant A330_03V/GpL16-k0 (antibody, human IgG1, kappa)
heavy 1: not shown
heavy 2: not shown
light: B1 light
notes: copies: 1 + 1 + 2
B8: GpH7-A5/GpH7-B3 variant A330_10E/GpL16-k0 (antibody, human IgG1, kappa)
heavy 1: not shown
heavy 2: not shown
light: B1 light
notes: copies: 1 + 1 + 2
B9: GpH7-A5/GpH7-B3 variant E333_09D/GpL16-k0 (antibody, human IgG1, kappa)
heavy 1: not shown
heavy 2: not shown
light: B1 light
notes: copies: 1 + 1 + 2
B10: GpH7-A5/GpH7-B3 variant D270_03V/GpL16-k0 (antibody, human IgG1, kappa)
heavy 1: not shown
heavy 2: not shown
light: B1 light
notes: copies: 1 + 1 + 2
B11: GpH7-A5/GpH7-B3 variant A327_20W/GpL16-k0 (antibody, human IgG1, kappa)
heavy 1: not shown
heavy 2: not shown
light: B1 light
notes: copies: 1 + 1 + 2
B12: GpH7-A5/GpH7-B3 variant D270_02A/GpL16-k0 (antibody, human IgG1, kappa)
heavy 1: not shown
heavy 2: not shown
light: B1 light
notes: copies: 1 + 1 + 2
B13: GpH7-A5/GpH7-B3 variant A327_05P/GpL16-k0 (antibody, human IgG1, kappa)
heavy 1: not shown
heavy 2: not shown
light: B1 light
notes: copies: 1 + 1 + 2
B14: GpH7-A5/GpH7-B3 variant A327_01G/GpL16-k0 (antibody, human IgG1, kappa)
heavy 1: not shown
heavy 2: not shown
light: B1 light
notes: copies: 1 + 1 + 2
B15: GpH7-A5/GpH7-B3 variant A327_19Q/GpL16-k0 (antibody, human IgG1, kappa)
heavy 1: not shown
heavy 2: not shown
light: B1 light
notes: copies: 1 + 1 + 2
B16: GpH7-A5/GpH7-B3 variant E269_19Q/GpL16-k0 (antibody, human IgG1, kappa)
heavy 1: not shown
heavy 2: not shown
light: B1 light
notes: copies: 1 + 1 + 2
B17: GpH7-A5/GpH7-B3 variant E333_02A/GpL16-k0 (antibody, human IgG1, kappa)
heavy 1: not shown
heavy 2: not shown
light: B1 light
notes: copies: 1 + 1 + 2
B18: GpH7-A5/GpH7-B3 variant D270_08L/GpL16-k0 (antibody, human IgG1, kappa)
heavy 1: not shown
heavy 2: not shown
light: B1 light
notes: copies: 1 + 1 + 2
B19: GpH7-A5/GpH7-B3 variant A330_05P/GpL16-k0 (antibody, human IgG1, kappa)
heavy 1: not shown
heavy 2: not shown
light: B1 light
notes: copies: 1 + 1 + 2
B20: GpH7-A5/GpH7-B3 variant A330_09D/GpL16-k0 (antibody, human IgG1, kappa)
heavy 1: not shown
heavy 2: not shown
light: B1 light
notes: copies: 1 + 1 + 2
B21: GpH7-A5/GpH7-B3 variant E269_16H/GpL16-k0 (antibody, human IgG1, kappa)
heavy 1: not shown
heavy 2: not shown
light: B1 light
notes: copies: 1 + 1 + 2
B22: GpH7-A5/GpH7-B3 variant E269_14T/GpL16-k0 (antibody, human IgG1, kappa)
heavy 1: not shown
heavy 2: not shown
light: B1 light
notes: copies: 1 + 1 + 2
B23: GpH7-A5/GpH7-B3 variant D270_14T/GpL16-k0 (antibody, human IgG1, kappa)
heavy 1: not shown
heavy 2: not shown
light: B1 light
notes: copies: 1 + 1 + 2
B24: GpH7-A5/GpH7-B3 variant E333_03V/GpL16-k0 (antibody, human IgG1, kappa)
heavy 1: not shown
heavy 2: not shown
light: B1 light
notes: copies: 1 + 1 + 2
B25: GpH7-A5/GpH7-B3 variant A330_16H/GpL16-k0 (antibody, human IgG1, kappa)
heavy 1: not shown
heavy 2: not shown
light: B1 light
notes: copies: 1 + 1 + 2
B26: GpH7-A5/GpH7-B3 variant E333_12R/GpL16-k0 (antibody, human IgG1, kappa)
heavy 1: not shown
heavy 2: not shown
light: B1 light
notes: copies: 1 + 1 + 2
B27: GpH7-A5/GpH7-B3 variant A330_07I/GpL16-k0 (antibody, human IgG1, kappa)
heavy 1: not shown
heavy 2: not shown
light: B1 light
notes: copies: 1 + 1 + 2
B28: GpH7-A5/GpH7-B3 variant D270_10E/GpL16-k0 (antibody, human IgG1, kappa)
heavy 1: not shown
heavy 2: not shown
light: B1 light
notes: copies: 1 + 1 + 2
B29: GpH7-A5/GpH7-B3 variant E269_01G/GpL16-k0 (antibody, human IgG1, kappa)
heavy 1: not shown
heavy 2: not shown
light: B1 light
notes: copies: 1 + 1 + 2
B30: GpH7-A5/GpH7-B3 variant E269_18N/GpL16-k0 (antibody, human IgG1, kappa)
heavy 1: not shown
heavy 2: not shown
light: B1 light
notes: copies: 1 + 1 + 2
B31: GpH7-A5/GpH7-B3 variant E269_06M/GpL16-k0 (antibody, human IgG1, kappa)
heavy 1: not shown
heavy 2: not shown
light: B1 light
notes: copies: 1 + 1 + 2

target: T1, FcγRIIIa (human, UniProt P08637 17-208); test: SPR (Biacore);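 note: antibody variants captured on an SPR sensor chip, with FcγRIIIa passed over as analyte in HBS-EP+ buffer at 25 °C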
T1 construct: extracellular domain; also called 3a; FcγRIIIa extracellular domain
T1 sequence (P08637 other isoform, or with tags, fused parts or gaps): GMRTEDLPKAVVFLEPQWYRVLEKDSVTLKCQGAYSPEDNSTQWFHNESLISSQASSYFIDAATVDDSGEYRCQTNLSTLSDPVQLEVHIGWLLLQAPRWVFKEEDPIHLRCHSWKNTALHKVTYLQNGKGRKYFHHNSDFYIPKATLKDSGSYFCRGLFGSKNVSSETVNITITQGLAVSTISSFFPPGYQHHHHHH

Row | Binder | He/Con 3a
1 | B1 | 86.3 % of GpH7-A5/GpH7-B3/GpL16-k0
2 | B2 | 74.2 % of GpH7-A5/GpH7-B3/GpL16-k0
3 | B3 | 62.8 % of GpH7-A5/GpH7-B3/GpL16-k0
4 | B4 | 86 % of GpH7-A5/GpH7-B3/GpL16-k0
5 | B5 | 56 % of GpH7-A5/GpH7-B3/GpL16-k0
6 | B6 | 62.1 % of GpH7-A5/GpH7-B3/GpL16-k0
7 | B7 | 98.8 % of GpH7-A5/GpH7-B3/GpL16-k0
8 | B8 | 82.8 % of GpH7-A5/GpH7-B3/GpL16-k0
9 | B9 | 115 % of GpH7-A5/GpH7-B3/GpL16-k0
10 | B10 | 54.6 % of GpH7-A5/GpH7-B3/GpL16-k0
11 | B11 | 52.6 % of GpH7-A5/GpH7-B3/GpL16-k0
12 | B12 | 50.5 % of GpH7-A5/GpH7-B3/GpL16-k0
13 | B13 | 61.9 % of GpH7-A5/GpH7-B3/GpL16-k0
14 | B14 | 74.4 % of GpH7-A5/GpH7-B3/GpL16-k0
15 | B15 | 54 % of GpH7-A5/GpH7-B3/GpL16-k0
16 | B16 | 64.3 % of GpH7-A5/GpH7-B3/GpL16-k0

Row | Binder | He/Con 3a
17 | B17 | 108 % of GpH7-A5/GpH7-B3/GpL16-k0
18 | B18 | 65.1 % of GpH7-A5/GpH7-B3/GpL16-k0
19 | B19 | 152 % of GpH7-A5/GpH7-B3/GpL16-k0
20 | B20 | 56.4 % of GpH7-A5/GpH7-B3/GpL16-k0
21 | B21 | 50.7 % of GpH7-A5/GpH7-B3/GpL16-k0
22 | B22 | 59.7 % of GpH7-A5/GpH7-B3/GpL16-k0
23 | B23 | 55.4 % of GpH7-A5/GpH7-B3/GpL16-k0
24 | B24 | 106 % of GpH7-A5/GpH7-B3/GpL16-k0
25 | B25 | 102 % of GpH7-A5/GpH7-B3/GpL16-k0
26 | B26 | 92.2 % of GpH7-A5/GpH7-B3/GpL16-k0
27 | B27 | 101 % of GpH7-A5/GpH7-B3/GpL16-k0
28 | B28 | 112 % of GpH7-A5/GpH7-B3/GpL16-k0
29 | B29 | 61.6 % of GpH7-A5/GpH7-B3/GpL16-k0
30 | B30 | 57.2 % of GpH7-A5/GpH7-B3/GpL16-k0
31 | B31 | 57.9 % of GpH7-A5/GpH7-B3/GpL16-k0
